{"source": "patent US20140113854A1", "key": {"Human α-thrombin (human) [1]": {"target": "Human α-thrombin (human) (UniProt P00734)", "test": "inhibition of thrombin by monovalent active-site moiety; conditions not given at the table"}, "Human α-thrombin (human) [2]": {"target": "Human α-thrombin (human) (UniProt P00734)", "test": "inhibition of thrombin-catalysed hydrolysis of chromogenic substrate S-2238, 37 °C"}}, "data": [{"substance": "Ac-dFPR (peptide)", "values": [{"measurement": "Ki", "setting": "Human α-thrombin (human) [1]", "value": 170, "unit": "µM"}]}, {"substance": "Bbs-R-(d-Pip)-G-NH2 (peptide)", "values": [{"measurement": "Ki", "setting": "Human α-thrombin (human) [1]", "value": 2.26, "unit": "µM"}]}, {"substance": "Bbs-R-(d-Pip)-NH2 (peptide)", "values": [{"measurement": "Ki", "setting": "Human α-thrombin (human) [1]", "value": 1.13, "unit": "µM"}]}, {"substance": "Bbs-R-(d-Pip)-W-NH2 (peptide)", "values": [{"measurement": "Ki", "setting": "Human α-thrombin (human) [1]", "value": 6, "unit": "µM"}]}, {"substance": "Bivalirudin (peptide)", "values": [{"measurement": "Ki", "setting": "Human α-thrombin (human) [2]", "value": 0.002, "unit": "µM"}]}, {"substance": "Boc-dFPR (peptide)", "values": [{"measurement": "Ki", "setting": "Human α-thrombin (human) [1]", "value": 4.38, "unit": "µM"}]}, {"substance": "Dansyl-R-(d-Pip)-Abu-NH2 (peptide)", "values": [{"measurement": "Ki", "setting": "Human α-thrombin (human) [1]", "value": 0.82, "unit": "µM"}]}, {"substance": "Dansyl-R-(d-Pip)-NH2 (peptide)", "values": [{"measurement": "Ki", "setting": "Human α-thrombin (human) [1]", "value": 0.37, "unit": "µM"}]}, {"substance": "Dansyl-R-(d-Tic)-NH2 (peptide)", "values": [{"measurement": "Ki", "setting": "Human α-thrombin (human) [1]", "value": 0.86, "unit": "µM"}]}, {"substance": "H-dFPR (peptide)", "values": [{"measurement": "Ki", "setting": "Human α-thrombin (human) [1]", "value": 1.57, "unit": "µM"}]}]}
